Target: the molecule itself
Test: crystal structure, PISA analysis of assemblies

B1: CSN51-257 wild type (human CSN5 residues 1-257, GST tag cleaved off) (enzyme)
chain: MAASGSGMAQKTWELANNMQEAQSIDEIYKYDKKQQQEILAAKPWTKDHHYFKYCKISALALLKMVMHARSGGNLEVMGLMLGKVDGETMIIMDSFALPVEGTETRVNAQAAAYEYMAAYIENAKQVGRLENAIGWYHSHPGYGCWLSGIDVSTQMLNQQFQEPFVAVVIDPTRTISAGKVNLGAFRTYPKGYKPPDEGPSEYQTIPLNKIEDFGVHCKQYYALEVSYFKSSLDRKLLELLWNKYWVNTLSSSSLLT
notes: Purified after cleavage by GST-3C protease; Crystallised form (PDB 4F70; SeMet-labelled for the crystal); Monomer-dimer equilibrium in solution; also called WT protein
B1: binds.

— US20160083712A1 (UNIVERSITY OF LEICESTER, published 2016)
